The values below come from PMC10185304, “Structure of Anabaena flos-aquae gas vesicles revealed by cryo-ET” (Structure (London, England : 1993), 2023).

B1: GvpC from Anabaena flos-aquae (Ana) gas vesicles (natural protein, UniProt P09413 1-193, looked up)
chain: MISLMAKIRQEHQSIAEKVAELSLETREFLSVTTAKRQEQAEKQAQELQAFYKDLQETSQQFLSETAQARIAQAEKQAQELLAFHKELQETSQQFLSATAQARIAQAEKQAQELLAFYQEVRETSQQFLSATAQARIAQAEKQAQELLAFHKELQETSQQFLSATADARTAQAKEQKESLLKFRQDLFVSIFG
notes: Gas vesicle protein GvpC, Anabaena flos-aquae (Dolichospermum flos-aquae strain 1403/13F); five 33-residue repeats plus short N and C termini; in PDB 8GBS it is modelled only as a poly-Ala chain of one repeat's length; removed with 6 M urea to give stripped (AnaS) vesicles; also called Ana GvpC; accessory protein GvpC; source: endogenous, in native gas vesicles isolated from Anabaena flos-aquae …
B2: GvpA from Anabaena flos-aquae (Ana) gas vesicles (natural protein, UniProt P10397 1-71, looked up)
chain: MAVEKTNSSSSLAEVIDRILDKGIVIDAWVRVSLVGIELLAIEARIVIASVETYLKYAEAVGLTQSAAVPA
notes: Gas vesicle structural protein GvpA (~8 kDa), Anabaena flos-aquae (Dolichospermum flos-aquae strain 1403/13F); polymerised into the helical filament that forms the gas vesicle shell; Native protein as it stands in purified gas vesicles; also called Ana GvpA; major structural protein; source: endogenous, in gas vesicles isolated from Anabaena flos-aquae by buoyancy purification

Experiment in all cases: cryo-EM structure; cryo-electron tomography with subtomogram averaging of the shell of native Ana gas vesicles (7.7 Å) and of urea-stripped AnaS gas vesicles (7.3 Å), 10 mM HEPES pH 7.5; GvpA homology model (from PDB 7R1C) and a poly-Ala helix for GvpC fitted as rigid bodies
The target in data set [1] is B2. The following applies: both partners purified.
For data set [2], the target named is B1. The settings on record: both partners purified.
Data set [3] concerns the molecule itself.

As for B1, the “stoichiometry N” value in data set [1] is around 0.05 GvpC per GvpA. As to B2, the binding result in data set [2] and in data set [3] was “binds” each time.

What is called stoichiometry N is the number of molecules, sites or subunits per partner or assembly.
